Biological target: spike wt

B1: Tri-pdbody (designed binder)
LCB1 mini-binder coupled to a DNA handle that is hybridised to an arm of a 3-helix-bundle DNA nanostructure: DKEWILQKIYEIMRLLDELGHAEASMRVSDLIYEFMKKGDERLLEEAERLLEEVER
notes: also called 3-Arm; 3arm
B1 was tested, and the Kd was 0.132 nM.

Reference: patent US20250222126A1 (ARIZONA BOARD OF REGENTS ON BEHALF OF ARIZONA STATE …, published 2025)
